Measurements: patent US20210061891A1 (DUKE UNIVERSITY, published 2021)
Ends that are not written are not given here.

T1: residue mutated to A: P (also: biotinylated, attachment site not given here)
T1 construct: position from the legend (CFH1114-1121)
T1 peptide: GPPPAIDNGDITSFP

T2: residue mutated to A: I (also: biotinylated, attachment site not given here)
T2 construct: position from the legend (CFH1114-1121)
T2 peptide: GPPPPADNGDITSFP

T3: residue mutated to A: D (3rd column) (also: biotinylated, attachment site not given here)
T3 construct: position from the legend (CFH1114-1121)
T3 peptide: GPPPPIANGDITSFP

T4: residue mutated to A: G (also: biotinylated, attachment site not given here)
T4 construct: position from the legend (CFH1114-1121)
T4 peptide: GPPPPIDNADITSFP

T5: residue mutated to A: D (6th column) (also: biotinylated, attachment site not given here)
T5 construct: position from the legend (CFH1114-1121)
T5 peptide: GPPPPIDNGAITSFP

T6: residue mutated to A: T (also: biotinylated, attachment site not given here)
T6 construct: position from the legend (CFH1114-1121)
T6 peptide: GPPPPIDNGDIASFP

T7: residue mutated to A: N (also: biotinylated, attachment site not given here)
T7 construct: position from the legend (CFH1114-1121)
T7 peptide: GPPPPIDAGDITSFP


Columns and labels:
[1] = molecular target: T8, reduced Complement Factor H (CFH treated with TCEP) (human, UniProt P08603 19-1231, disulfide bonds reduced with TCEP); test: immunoblot (Surf-Blot), CFH treated with TCEP (reduced) before electrophoresis; anti-human IgG-HRP
T8 construct: also called reduced CFH; conformationally distinct form of CFH
T8 sequence (P08603 19-1231 limits assumed): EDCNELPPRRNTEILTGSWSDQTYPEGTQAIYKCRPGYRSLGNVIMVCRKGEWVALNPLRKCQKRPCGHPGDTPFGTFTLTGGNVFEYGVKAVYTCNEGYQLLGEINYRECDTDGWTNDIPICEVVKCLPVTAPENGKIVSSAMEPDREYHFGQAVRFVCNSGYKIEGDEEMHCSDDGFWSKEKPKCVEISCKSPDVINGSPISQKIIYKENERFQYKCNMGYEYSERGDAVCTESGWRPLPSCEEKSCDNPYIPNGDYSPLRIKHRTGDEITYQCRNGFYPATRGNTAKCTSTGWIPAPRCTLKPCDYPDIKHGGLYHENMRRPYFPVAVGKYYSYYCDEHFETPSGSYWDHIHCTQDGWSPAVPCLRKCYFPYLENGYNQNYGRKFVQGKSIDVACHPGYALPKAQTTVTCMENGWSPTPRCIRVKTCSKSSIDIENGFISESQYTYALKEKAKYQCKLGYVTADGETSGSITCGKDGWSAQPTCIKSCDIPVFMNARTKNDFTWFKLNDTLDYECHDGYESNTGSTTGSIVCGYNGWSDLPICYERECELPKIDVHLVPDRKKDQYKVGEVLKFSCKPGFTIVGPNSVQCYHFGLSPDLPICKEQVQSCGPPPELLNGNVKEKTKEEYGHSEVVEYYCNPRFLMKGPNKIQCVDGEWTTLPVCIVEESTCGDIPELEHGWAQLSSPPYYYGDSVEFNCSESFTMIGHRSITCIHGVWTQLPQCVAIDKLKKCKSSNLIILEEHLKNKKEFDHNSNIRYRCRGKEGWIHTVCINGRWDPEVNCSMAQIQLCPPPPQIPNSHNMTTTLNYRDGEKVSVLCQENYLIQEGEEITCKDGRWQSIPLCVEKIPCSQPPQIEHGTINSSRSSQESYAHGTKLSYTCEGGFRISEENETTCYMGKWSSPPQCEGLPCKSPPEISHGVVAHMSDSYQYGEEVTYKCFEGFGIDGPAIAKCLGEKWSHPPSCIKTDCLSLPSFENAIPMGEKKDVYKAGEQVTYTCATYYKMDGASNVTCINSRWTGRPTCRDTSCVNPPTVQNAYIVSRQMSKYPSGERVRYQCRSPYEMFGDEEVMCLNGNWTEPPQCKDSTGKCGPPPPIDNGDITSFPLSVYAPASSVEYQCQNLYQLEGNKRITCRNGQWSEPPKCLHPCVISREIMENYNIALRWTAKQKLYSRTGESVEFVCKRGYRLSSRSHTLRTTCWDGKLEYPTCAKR

[2] = molecular target: T9, native Complement Factor H (CFH) (human, UniProt P08603 19-1231); test: immunoblot (Surf-Blot), CFH treated with Tris-HCl (oxidized) before electrophoresis; anti-human IgG-HRP
T9 construct: Native, non-reduced CFH; also called native CFH; full-length native CFH
T9 sequence (P08603 19-1231 limits assumed): as above

residue mutated to A: P = molecular target: T1, residue mutated to A: P; test: ELISA on streptavidin-immobilized biotinylated 15mer peptides; area under the signal vs antibody concentration curve;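 also: antibody binding to each alanine-substituted peptide expressed relative to binding to the natural peptide, using curve area determined separately for every peptide-antibody pair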
residue mutated to A: I = molecular target: T2, residue mutated to A: I; test: as above
residue mutated to A: D [3] = molecular target: T3, residue mutated to A: D; test: as above
residue mutated to A: G = molecular target: T4, residue mutated to A: G; test: as above
residue mutated to A: D [4] = molecular target: T5, residue mutated to A: D; test: as above
residue mutated to A: T = molecular target: T6, residue mutated to A: T; test: as above
residue mutated to A: N = molecular target: T7, residue mutated to A: N; test: as above

Row | binding result [1] | binding result [2] | percent of binding to the natural peptide (AUC) (residue mutated to A: P) [%] | percent of binding to the natural peptide (AUC) (residue mutated to A: I) [%] | percent of binding to the natural peptide (AUC) (residue mutated to A: D [3]) [%] | percent of binding to the natural peptide (AUC) (residue mutated to A: G) [%] | percent of binding to the natural peptide (AUC) (residue mutated to A: D [4]) [%] | percent of binding to the natural peptide (AUC) (residue mutated to A: T) [%] | percent of binding to the natural peptide (AUC) (residue mutated to A: N) [%] | Binder
1 | binds | binds | 61 | 61 | 100 | 99 | 102 | 48 | 30 | Ab7957/293i (antibody, V domains shown, Recombinant human mAb) VH: LVESGGGVVPPGKSLRLSCAASGFTFSLYGIHWVRQAPGKGLEWVAVISYDGNTKYYTDSVKGRFTISRDNAKNTIYLQMNSLRLDDTAVYYCAKGAANSATFDFWGRGTMVTVSS VL: MTQSPDSLTLSLGERATINCRSSRTVLYRSNNKNYLAWYQHKPGQPPKLLMSWASTRETGVPDRFSGSGSGTHFTLTITSLQPEDVAVYYCQQYYSPPWTFGQGTKVEIR
2 | binds | binds | 64 | 61 | 96 | 102 | 98 |  | 29 | Ab7979 (antibody, V domains shown, Recombinant human mAb) VH: LVESGGGVVQPGKSLRLSCVASGFTFSTYGMHWVRQAPGKGLEWVAVMSFDGKTKYYADSVKGRFTISRDNPKNTLYLQMNSLRSEDTAVYYCAKGGAAAAVFDSWGQGILLTVSS VL: MTQSPNSLAVSLGGRATINCKTSQSILYRSNNKNYLAWYQHKPGQPPKLLIYWASTRESRVPDRFSGSGSRTDFTLTISGLQAEDVAVYYCQQYYNPPWTFGQGTKVEIK
3 | binds | binds | 53 | 43 | 95 | 99 | 99 |  |  | Ab7960/293i (antibody, V domains shown, Recombinant human mAb) VH: LVESGGGVVQPGKSLRLSCVASGFSFSTYGMHWVRQAPGKGLEWVAVMSFDGKTKYYADSVKGRFTISRDNPKNTLYLQMNSLRSEDTAVYYCAKGGAAAAVFDSWGPGILLTVSS VL: MTQSPNSLAVSLGGRATINCKASQSILYRSNNKNYLAWYQHKAGQPPKLLIYWASTRESGVPERFSGSGSRTDFTLTINGLQAEDVAVYYCQQYYNPPWTFGQGTKVEIK

Continued, binder first:

Row | Binder | binding result [1] | binding result [2] | percent of binding to the natural peptide (AUC) (residue mutated to A: P) [%] | percent of binding to the natural peptide (AUC) (residue mutated to A: I) [%] | percent of binding to the natural peptide (AUC) (residue mutated to A: D [3]) [%] | percent of binding to the natural peptide (AUC) (residue mutated to A: G) [%] | percent of binding to the natural peptide (AUC) (residue mutated to A: D [4]) [%] | percent of binding to the natural peptide (AUC) (residue mutated to A: T) [%] | percent of binding to the natural peptide (AUC) (residue mutated to A: N) [%]
4 | Ab7964 (antibody, V domains shown, Recombinant human mAb) VH: LVESGGGVVQPGRSLRLSCAASGVTFSRYGMHWVRQAPGKGLEWVAVISYDEKTKYYADSVKGRFTISRDNSKNTLFLHMNRLRYEDTAVYYCAKGASSGAYFDYWGQGTLVTVSS VL: not shown | binds | binds | 74 | 76 | 100 | 100 | 102 | 66 | 
5 | CFH mAb7968 (antibody, V domains shown, also called CBAb1) VH: LVESGGGVVQPGRSLRLSCAASGFTFSRYGMHWVRQAPGKGLEWVAVMSYDGSTKYYADSVKGRFAISRDNPKNTLFLQMNSLRPDDTAVYYCAKGGAAAAVMDVWGKGTTVTVSS VL: MTQSPDSLTVSLGERATISCKSSQRLLYSSNNKNYLAWYQQKPGQPPKLLMYWASTRESGVPDRFSGSGSGTDFSLTISSLQAEDVAVYYCQQYYNPPWTFGQGTKVEVK |  |  | 73 | 73 | 102 | 100 | 101 | 54 | 
6 | Ab7961/293i (antibody, V domains shown, Recombinant human mAb) VH: LVESGGGVVQPGKSLRLSCVASGFTFSSYGMHWVRQAPGKGLEWVAVMSFDGKTKYYADSVKGRFTISRDNPKNTLYLQMNSLRSEDTAVYYCAKGGAAAAVFDSWGQGILLTVSS VL: MTQSPNSLAVSLGGRATINCKTSQSILYRSNNKNYLAWYQHKSGQPPKLLIYWASTRESGVPDRFSGSGSRTDFTLTISGLQAEDVAVYYCQQYYNPPWTFGQGTKVEIK | binds | binds | 56 | 52 | 100 | 104 | 105 | 16 | 
7 | Ab7955 (antibody, V domains shown, Recombinant human mAb) VH: LVESGGGVVRPGRSLRLSCVASGFTFNAYGMHWVRQGPGKGLEWLAVISYEGKTVYYADSVKDRFTISRDNSRNTVSLHLNNLRGEDTAVYYCAKGSASAAVLQHWGQGTLVSVTS VL: MTQSPGSLAVSLGSRATINCKSSRSLLYRSNNKNYLAWYQQKPGQSPRLLIYWASSRESGVPDRFSGGGSGTSFTLTISSLQAEDVAVYYCQQYFNPPWTFGQGTKVEIK |  |  | 52 |  | 81 | 104 | 103 |  | 
